Tests used:
[1] = target: T1, GST-Egl512-819 (Drosophila melanogaster, UniProt Q9W1K4 512-819); experiment: fluorescence anisotropy; FA: 20 mM HEPES-NaOH pH 7.5, 100 mM NaCl, 10% glycerol, 20 C, 10 nM FAM-RNA; competition: 150 nM Egl512-819 + 10 nM FAM-K10 TLS, same buffer; conditions: protein: recombinant, tags: N-terminal GST (TEV site)
T1 sequence: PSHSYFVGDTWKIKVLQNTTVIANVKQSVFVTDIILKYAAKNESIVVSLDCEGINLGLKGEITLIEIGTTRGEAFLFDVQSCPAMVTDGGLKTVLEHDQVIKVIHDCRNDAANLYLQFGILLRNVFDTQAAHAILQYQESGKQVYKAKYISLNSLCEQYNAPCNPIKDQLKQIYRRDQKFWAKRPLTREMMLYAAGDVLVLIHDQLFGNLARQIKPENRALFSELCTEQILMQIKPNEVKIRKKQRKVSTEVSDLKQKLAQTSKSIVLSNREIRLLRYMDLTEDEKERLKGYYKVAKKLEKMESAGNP

[2] = target: T1, GST-Egl512-819; experiment: competition; vs FAM-K10 TLS; FA: 20 mM HEPES-NaOH pH 7.5, 100 mM NaCl, 10% glycerol, 20 C, 10 nM FAM-RNA; competition: 150 nM Egl512-819 + 10 nM FAM-K10 TLS, same buffer; conditions: protein: recombinant, tags: N-terminal GST (TEV site)
[3] = target: T1, GST-Egl512-819; experiment: competition; vs FAM-K10 TLS; none at 40,000-fold excess; FA: 20 mM HEPES-NaOH pH 7.5, 100 mM NaCl, 10% glycerol, 20 C, 10 nM FAM-RNA; competition: 150 nM Egl512-819 + 10 nM FAM-K10 TLS, same buffer; conditions: protein: recombinant; tags: N-terminal GST (TEV site)
[4] = target: T1, GST-Egl512-819; experiment: fluorescence anisotropy; listed as K10-10nt; FA: 20 mM HEPES-NaOH pH 7.5, 100 mM NaCl, 10% glycerol, 20 C, 10 nM FAM-RNA; competition: 150 nM Egl512-819 + 10 nM FAM-K10 TLS, same buffer; conditions: protein: recombinant; tags: N-terminal GST (TEV site); label: 5'-FAM in direct assay; hairpin, 3' overhang 10 nt
[5] = label: 5'-FAM in direct assay, hairpin

UUUUUUUUUUUUUUUUUUUU (ssRNA) [ssRNA (U20)]
Kd ([1]; label: 5'-FAM): 175 ± 3 nM

CUUGAUUGUACUUUUUAAAUUAAUUCUUAAAAAUACAAAUUAAG (structured_RNA) [K10-b1as]
IC50 ([2]; hairpin): 63 ± 1 nM

AUUGAUUGUACUUUUUAAAUUAAUUCUUAAAAAUACAAAUUAAU (structured_RNA) [K10-b1as-AU]
IC50 ([2]; hairpin): 87 ± 8 nM

GGCUUGAUUGUAUUUUUAAAUUAAUUCUUAAAAACUACAAAUUAAGCC (structured_RNA) [K10-2GC]
IC50 ([2]; hairpin with two bulges): 57 ± 6 nM

B1: bcd_VbS (structured_RNA)
RNA: AAAUGUUUCUCUUGGGCGUAAUCUCAUACAAUGAUUACCCUUAAAGAUCGAACAUUU
Kd ([1]; label: 5'-FAM, hairpin): 158 ± 8 nM

B2: ARF1 dsRNA (dsRNA)
RNA 1: UGAGUGCCAGAAGCUGCCUC
RNA 2: GAGGCAGUUUCUGGUACUCA
IC50 ([2]; blunt, with G-U wobbles): 102 ± 14 nM

CUUGAUUGUAUUUUUAAAUUAAUUCUUAAAAACUACAAAUUAAG (structured_RNA) [K10 TLS (unlabeled)]
IC50 ([2]; hairpin with two bulges): 53 ± 4 nM

AUUGAUUGUAUUUUUAAAUUAAUUCUUAAAAACUACAAAUUAAU (structured_RNA) [K10-AU]
IC50 ([2]; hairpin): 67 ± 4 nM

GAAUUAAACAUCAAAAAUUCUUAAUUAAAUUUUUAUGUUAGUUC (structured_RNA) [K10-as]
Kd [1, 5]: 102 ± 6 nM

B3: dsRNA (dsRNA)
RNA 1: UGAGUGCCAGAAGCUGCCUC
RNA 2: GAGGCAGCUUCUGGCACUCA
Kd ([1]; blunt): 192 ± 7 nM

B4: dsDNA (dsDNA)
DNA 1: AGGCAGTTTCTGGTACTCAG
DNA 2: CTGAGTACCAGAAACTGCCT
IC50 ([2]; blunt): 8890 ± 933 nM

ACAUGAGGAUUACCCAUGU (structured_RNA) [MS2 stem loop]
IC50 ([2]; hairpin): 142 ± 13 nM

AGGCAGTTTCTGGTACTCAG (ssDNA) [ssDNA]
binding result [3]: no binding

AUAUAUAUAUAUAUAUAUAU (ssRNA) [ssRNA (AU20)]
Kd ([1]; label: 5'-FAM): 137 ± 8 nM

B5: bcd_VbL (structured_RNA)
RNA: GGGCCCAAAAUGAAAAAUGUUUCUCUUGGGCGUAAUCUCAUACAAUGAUUACCCUUAAAGAUCGAACAUUUAAACAAUAAUAUUUGGG
Kd [1, 5]: 123 ± 13 nM
IC50 [2, 5]: 31 ± 5 nM

CUUGAUUGUAUUUUUAAAUUAAUUCUUAAAAAUACAAUUAAG (structured_RNA) [K10-Delta b1b2]
Kd [1, 5]: 172 ± 18 nM

B6: K10-flank (K10-10nt) (structured_RNA)
RNA: CUUGAUUGUAUUUUUAAAUUAAUUCUUAAAAACUACAAAUUAAGAUCACUCUGU
IC50 ([2]; label: 5'-FAM in direct assay, hairpin, 3' overhang 10 nt): 53 ± 2 nM
Kd [4]: 92 ± 13 nM

From article doi:10.1101/2025.08.03.668247, “The structure of Egalitarian in complex with the K10 mRNA localization signal reveals a modular binding surface required for function”
